The values below come from publication PMC7736794.

In the test the target is T1, PrimPol (endogenous, OVCAR8), Q96LW4.
T1 chain: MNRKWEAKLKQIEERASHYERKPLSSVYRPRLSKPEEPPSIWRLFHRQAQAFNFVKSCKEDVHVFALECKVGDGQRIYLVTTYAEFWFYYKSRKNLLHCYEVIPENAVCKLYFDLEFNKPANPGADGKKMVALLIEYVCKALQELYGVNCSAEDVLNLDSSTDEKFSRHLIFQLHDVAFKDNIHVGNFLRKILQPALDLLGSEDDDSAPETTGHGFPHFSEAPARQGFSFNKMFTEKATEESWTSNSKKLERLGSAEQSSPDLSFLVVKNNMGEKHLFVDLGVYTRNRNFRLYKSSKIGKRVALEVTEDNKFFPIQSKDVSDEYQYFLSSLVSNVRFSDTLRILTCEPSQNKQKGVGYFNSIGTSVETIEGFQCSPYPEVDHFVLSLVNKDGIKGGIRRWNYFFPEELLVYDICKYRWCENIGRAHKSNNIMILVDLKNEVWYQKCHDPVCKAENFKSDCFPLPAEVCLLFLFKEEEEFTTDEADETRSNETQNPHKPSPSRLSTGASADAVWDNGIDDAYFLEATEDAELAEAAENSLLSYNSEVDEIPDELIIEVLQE
The test can be described thus: in situ proximity ligation assay (PLA). As to conditions: chain shown with the change, USP36 stably knock-down OVCAR8 cells, read off a plot.

B1: USP36-wild-type (WT), transfected in OVCAR8, Q9P275 K329R; K338R (protein)
chain: MPIVDKLKEALKPGRKDSADDGELGKLLASSAKKVLLQKIEFEPASKSFSYQLEALKSKYVLLNPKTEGASRHKSGDDPPARRQGSEHTYESCGDGVPAPQKVLFPTERLSLRWERVFRVGAGLHNLGNTCFLNATIQCLTYTPPLANYLLSKEHARSCHQGSFCMLCVMQNHIVQAFANSGNAIKPVSFIRDLKKIARHFRFGNQEDAHEFLRYTIDAMQKACLNGCAKLDRQTQATTLVHQIFGGYLRSRVKCSVCKSVSDTYDPYLDVALEIRQAANIVRALELFVKADVLSGENAYMCAKCKKKVPASKRFTIHRTSNVLTLSLRRFANFSGGRITKDVGYPEFLNIRPYMSQNNGDPVMYGLYAVLVHSGYSCHAGHYYCYVKASNGQWYQMNDSLVHSSNVKVVLNQQAYVLFYLRIPGSKKSPEGLISRTGSSSLPGRPSVIPDHSKKNIGNGIISSPLTGKRQDSGTMKKPHTTEEIGVPISRNGSTLGLKSQNGCIPPKLPSGSPSPKLSQTPTHMPTILDDPGKKVKKPAPPQHFSPRTAQGLPGTSNSNSSRSGSQRQGSWDSRDVVLSTSPKLLATATANGHGLKGNDESAGLDRRGSSSSSPEHSASSDSTKAPQTPRSGAAHLCDSQETNCSTAGHSKTPPSGADSKTVKLKSPVLSNTTTEPASTMSPPPAKKLALSAKKASTLWRATGNDLRPPPPSPSSDLTHPMKTSHPVVASTWPVHRARAVSPAPQSSSRLQPPFSPHPTLLSSTPKPPGTSEPRSCSSISTALPQVNEDLVSLPHQLPEASEPPQSPSEKRKKTFVGEPQRLGSETRLPQHIREATAAPHGKRKRKKKKRPEDTAASALQEGQTQRQPGSPMYRREGQAQLPAVRRQEDGTQPQVNGQQVGCVTDGHHASSRKRRRKGAEGLGEEGGLHQDPLRHSCSPMGDGDPEAMEESPRKKKKKKRKQETQRAVEEDGHLKCPRSAKPQDAVVPESSSCAPSANGWCPGDRMGLSQAPPVSWNGERESDVVQELLKYSSDKAYGRKVLTWDGKMSAVSQDAIEDSRQARTETVVDDWDEEFDRGKEKKIKKFKREKRRNFNAFQKLQTRRNFWSVTHPAKAASLSYRR
As for B1, the response (PLA puncta / cell) was found to be 15 (HU (10 mM) for 4 h, parent: est. 17) and 15 (untreated (Ctrl), parent: est. 11).
